Results as given in US20100291097A1.

Key:
[1] = molecular target: Peptide 12 of the Aβ1-42 overlapping peptide library; test: peptide library ELISA, Ab 10 µg/ml
[2] = molecular target: Peptide 22 of the Aβ1-42 overlapping peptide library; test: peptide library ELISA, Ab 10 µg/ml
[3] = molecular target: Peptide 10 of the Aβ1-42 overlapping peptide library; test: peptide library ELISA, Ab 10 µg/ml
[4] = molecular target: Peptide 21 of the Aβ1-42 overlapping peptide library; test: peptide library ELISA, Ab 10 µg/ml
[5] = molecular target: Peptide 33 of the Aβ1-42 overlapping peptide library; test: peptide library ELISA, Ab 10 µg/ml
[6] = molecular target: Peptide 29 of the Aβ1-42 overlapping peptide library; test: peptide library ELISA, Ab 10 µg/ml
[7] = molecular target: Peptide 13 of the Aβ1-42 overlapping peptide library; test: peptide library ELISA, Ab 10 µg/ml
[8] = molecular target: Peptide 19 of the Aβ1-42 overlapping peptide library; test: peptide library ELISA, Ab 10 µg/ml
[9] = molecular target: Peptide 17 of the Aβ1-42 overlapping peptide library; test: peptide library ELISA, Ab 10 µg/ml
[10] = molecular target: Peptide 25 of the Aβ1-42 overlapping peptide library; test: peptide library ELISA, Ab 10 µg/ml
[11] = molecular target: Peptide 31 of the Aβ1-42 overlapping peptide library; test: peptide library ELISA, Ab 10 µg/ml
[12] = molecular target: Peptide 5 of the Aβ1-42 overlapping peptide library; test: peptide library ELISA, Ab 10 µg/ml
[13] = molecular target: Peptide 8 of the Aβ1-42 overlapping peptide library; test: peptide library ELISA, Ab 10 µg/ml
[14] = molecular target: Peptide 14 of the Aβ1-42 overlapping peptide library; test: peptide library ELISA, Ab 10 µg/ml
[15] = molecular target: Peptide 18 of the Aβ1-42 overlapping peptide library; test: peptide library ELISA, Ab 10 µg/ml
[16] = molecular target: Peptide 2 of the Aβ1-42 overlapping peptide library; test: peptide library ELISA, Ab 10 µg/ml
[17] = molecular target: Peptide 32 of the Aβ1-42 overlapping peptide library; test: peptide library ELISA, Ab 10 µg/ml
[18] = molecular target: Peptide 7 of the Aβ1-42 overlapping peptide library; test: peptide library ELISA, Ab 10 µg/ml
[19] = molecular target: Peptide 20 of the Aβ1-42 overlapping peptide library; test: peptide library ELISA, Ab 10 µg/ml
[20] = molecular target: Peptide 28 of the Aβ1-42 overlapping peptide library; test: peptide library ELISA, Ab 10 µg/ml
[21] = molecular target: Peptide 9 of the Aβ1-42 overlapping peptide library; test: peptide library ELISA, Ab 10 µg/ml
[22] = molecular target: Peptide 26 of the Aβ1-42 overlapping peptide library; test: peptide library ELISA, Ab 10 µg/ml
[23] = molecular target: Peptide 23 of the Aβ1-42 overlapping peptide library; test: peptide library ELISA, Ab 10 µg/ml
[24] = molecular target: Peptide 30 of the Aβ1-42 overlapping peptide library; test: peptide library ELISA, Ab 10 µg/ml
[25] = molecular target: Peptide 4 of the Aβ1-42 overlapping peptide library; test: peptide library ELISA, Ab 10 µg/ml
[26] = molecular target: Peptide 24 of the Aβ1-42 overlapping peptide library; test: peptide library ELISA, Ab 10 µg/ml
[27] = molecular target: Peptide 6 of the Aβ1-42 overlapping peptide library; test: peptide library ELISA, Ab 10 µg/ml
[28] = molecular target: Peptide 1 of the Aβ1-42 overlapping peptide library; test: peptide library ELISA, Ab 10 µg/ml
[29] = molecular target: Peptide 15 of the Aβ1-42 overlapping peptide library; test: peptide library ELISA, Ab 10 µg/ml
[30] = molecular target: Peptide 3 of the Aβ1-42 overlapping peptide library; test: peptide library ELISA, Ab 10 µg/ml
[31] = molecular target: Peptide 27 of the Aβ1-42 overlapping peptide library; test: peptide library ELISA, Ab 10 µg/ml
[32] = molecular target: Peptide 16 of the Aβ1-42 overlapping peptide library; test: peptide library ELISA, Ab 10 µg/ml
[33] = molecular target: Peptide 11 of the Aβ1-42 overlapping peptide library; test: peptide library ELISA, Ab 10 µg/ml
Aβ1-42 peptide = test: cell-based or functional assay
[34] = molecular target: Aβ1-28 peptide, biotinylated (Anaspec); test: ELISA, biotin-peptide on streptavidin, Ab 10 µg/ml; mean of 2, background subtracted; details: remark: other sources report otherwise
Sequence of Aβ1-28 peptide, biotinylated (Anaspec) (chain, as listed by the source): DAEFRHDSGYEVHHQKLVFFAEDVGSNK

Sequence of Aβ1-42 peptide (peptide, as listed by the source): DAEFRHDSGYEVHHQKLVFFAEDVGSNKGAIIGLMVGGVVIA

B1: ACI-24-Ab-3 monoclonal antibody (antibody, IgG1, V domains shown)
VH: QVQLQQSGAELARPGASVKLSCKASGYTFTSYGIRWVKQRTGQGLEWIGEICPRSGNTYYNEKFKGKATVTADKSSSTAYMELRSLTSEDSAVYFCARSIYYGRPYYFDYWGQGTTLTVSS
VL: DIVMTQSQLFMSTSVGDRVSVTCKASQNVATNVAWYQQKPGQSPKALIYSASYRYSGVPDRFTGSGSGTDFTLTISNVQSEDLAEYFCQQYNSYPLTFGAGTKLELK
Q: B1 was tested. Which O.D. [1] did it give?
A: Its O.D. is 0.34 O.D.

Q: What about the O.D. [2] of the same binder?
A: The O.D. was 0.21 O.D.

Q: And the O.D. [3]?
A: Its O.D. is 0.2 O.D.

Q: What about the O.D. [4] of the same binder?
A: Its O.D. is 0.21 O.D.

Q: What about the O.D. [5] of the same binder?
A: The O.D. was 0.26 O.D.

Q: What about the O.D. [6] of the same binder?
A: Its O.D. is 0.27 O.D.

Q: And the O.D. [7]?
A: Its O.D. is 0.23 O.D.

Q: What about the O.D. [8] of the same binder?
A: The O.D. was 0.3 O.D.

Q: What about the O.D. [9] of the same binder?
A: The O.D. was 0.31 O.D.

Q: And the O.D. [10]?
A: The O.D. was 0.23 O.D.

Q: What about the O.D. [11] of the same binder?
A: The O.D. was 0.31 O.D.

Q: What about the O.D. [12] of the same binder?
A: The O.D. was 0.32 O.D.

Q: What about the O.D. [13] of the same binder?
A: The O.D. was 0.21 O.D.

Q: What about the O.D. [14] of the same binder?
A: Its O.D. is 0.3 O.D.

Q: What about the O.D. [15] of the same binder?
A: The O.D. was 0.3 O.D.

Q: And the O.D. [16]?
A: Its O.D. is 0.26 O.D.

Q: And the O.D. [17]?
A: The O.D. was 0.31 O.D.

Q: And the O.D. [18]?
A: The O.D. was 0.3 O.D.

Q: And the O.D. [19]?
A: The O.D. was 0.22 O.D.

Q: And the O.D. [20]?
A: Its O.D. is 0.26 O.D.

Q: What about the O.D. [21] of the same binder?
A: Its O.D. is 0.19 O.D.

Q: What about the O.D. [22] of the same binder?
A: Its O.D. is 0.25 O.D.

Q: What about the O.D. [23] of the same binder?
A: Its O.D. is 0.2 O.D.

Q: What about the O.D. [24] of the same binder?
A: Its O.D. is 0.29 O.D.

Q: And the O.D. [25]?
A: The O.D. was 0.36 O.D.

Q: And the O.D. [26]?
A: The O.D. was 0.18 O.D.

Q: What about the O.D. [27] of the same binder?
A: Its O.D. is 0.34 O.D.

Q: What about the O.D. [28] of the same binder?
A: The O.D. was 0.32 O.D.

Q: What about the O.D. [29] of the same binder?
A: Its O.D. is 0.32 O.D.

Q: What about the O.D. [30] of the same binder?
A: Its O.D. is 0.37 O.D.

Q: And the O.D. [31]?
A: The O.D. was 0.26 O.D.

Q: What about the O.D. [32] of the same binder?
A: The O.D. was 0.34 O.D.

Q: What about the O.D. [33] of the same binder?
A: Its O.D. is 0.23 O.D.

Q: What about the disaggregation of pre-aggregated Aβ1-42, thioflavin T assay, molar ratio 1:10 (Aβ1-42 peptide) of the same binder?
A: The disaggregation of pre-aggregated Aβ1-42, thioflavin T assay, molar ratio 1:10 was 20%.

Q: And the disaggregation of pre-aggregated Aβ1-42, thioflavin T assay, molar ratio 1:100 (Aβ1-42 peptide)?
A: The disaggregation of pre-aggregated Aβ1-42, thioflavin T assay, molar ratio 1:100 was 12%.

Q: And the inhibition of Aβ1-42 aggregation, thioflavin T assay, antibody to Aβ1-42 molar ratio 1:10 (Aβ1-42 peptide)?
A: The inhibition of Aβ1-42 aggregation, thioflavin T assay, antibody to Aβ1-42 molar ratio 1:10 was 51%.

Q: And the inhibition of Aβ1-42 aggregation, thioflavin T assay, antibody to Aβ1-42 molar ratio 1:100 (Aβ1-42 peptide)?
A: Its inhibition of Aβ1-42 aggregation, thioflavin T assay, antibody to Aβ1-42 molar ratio 1:100 is 26%.

B2: ACI-11-Ab-9 monoclonal antibody (antibody, V domains shown)
VL: QAVVTQESALTTSPGGTVILTCRSSTGAVTTSNYANWVQEKPDHLFTGLIGGTSNRAPGVPVRFSGSLIGDKAALTITGAQTEDDAMYFCALWYSTHYVFGGGTKVTVL
VH: QVQLQQSDAELVKPGASVKISCKVSGYTFTDHTIHWMKQRPEQGLEWIGYIYPRDGSTKYNEKFKGKATLTADKSSSTAYMQLNSLTSEDSAVYFCARDYGYAFDYWGQGTTLTVSS
modifications: here or on the partner: biotinylated (position not given)
Q: B2 was tested. Which O.D. [34] did it give?
A: The O.D. was 0.53 O.D.
